# Biological target: the molecule itself
# Assay: SDS-PAGE and Western blot of SDS-resistant oligomers
row,Protein,binding result
1,EASNCFAIRHFENKFAVETLICFNLFLNSQEKHY (N-terminal pyroglutamate (pE) in place of Glu1) [ADan pE (34-amino acid ADan amyloid peptide with N-terminal pyroglutamate)],binds
2,EASNCFAIRHFENKFAVETLICFNLFLNSQEKHY [ADan E (34-amino acid ADan amyloid peptide with N-terminal glutamate)],binds
